Measured values reported in US20210388087A1 (Chugai, published 2021).

T1: Human CD3eg linker (human)
T1 construct: single-chain construct; also called recombinant human CD3
T1 chain: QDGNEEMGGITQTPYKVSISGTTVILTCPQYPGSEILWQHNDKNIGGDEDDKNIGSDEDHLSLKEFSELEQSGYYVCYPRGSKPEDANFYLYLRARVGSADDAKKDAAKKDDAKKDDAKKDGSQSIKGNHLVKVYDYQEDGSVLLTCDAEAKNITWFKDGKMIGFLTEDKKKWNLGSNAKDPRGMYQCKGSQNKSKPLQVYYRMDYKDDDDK


Biological target: T1, Human CD3eg linker
Test: SPR, vs unmutated H183/L072

Row | Binder | fold change of affinity
1 | dBBDu183H A102N/dBBDu072L (antibody, name in Kabat numbering, V domains shown) VH: QVQLVESGGGLVQPGRSLRLSCAASGFTFSNAWMHWVRQAPGKGLEWVAQIKDKGNAYAAYYAPSVKGRFTISRDDSKNSIYLQMNSLKTEDTAVYYCHYVHYASASTVLPAFGVDNWGQGTTVTVSS VL: DIVMTQSPLSLPVTPGEPASISCQASQELVHMNRNTYLHWYQQKPGQAPRLLIYKVSNRFPGVPDRFSGSGSGTDFTLKISRVEAEDVGVYYCAQGTSVPFTFGQGTKLEIK | 1.5 fold
2 | dBBDu183H D101F/dBBDu072L (antibody, name in Kabat numbering, V domains shown) VH: QVQLVESGGGLVQPGRSLRLSCAASGFTFSNAWMHWVRQAPGKGLEWVAQIKDKGNAYAAYYAPSVKGRFTISRDDSKNSIYLQMNSLKTEDTAVYYCHYVHYASASTVLPAFGVFAWGQGTTVTVSS VL: DIVMTQSPLSLPVTPGEPASISCQASQELVHMNRNTYLHWYQQKPGQAPRLLIYKVSNRFPGVPDRFSGSGSGTDFTLKISRVEAEDVGVYYCAQGTSVPFTFGQGTKLEIK | 2.5 fold
3 | dBBDu183H D101G/dBBDu072L (antibody, name in Kabat numbering, V domains shown) VH: QVQLVESGGGLVQPGRSLRLSCAASGFTFSNAWMHWVRQAPGKGLEWVAQIKDKGNAYAAYYAPSVKGRFTISRDDSKNSIYLQMNSLKTEDTAVYYCHYVHYASASTVLPAFGVGAWGQGTTVTVSS VL: DIVMTQSPLSLPVTPGEPASISCQASQELVHMNRNTYLHWYQQKPGQAPRLLIYKVSNRFPGVPDRFSGSGSGTDFTLKISRVEAEDVGVYYCAQGTSVPFTFGQGTKLEIK | 0.4 fold
4 | dBBDu183H D101H/dBBDu072L (antibody, name in Kabat numbering, V domains shown) VH: QVQLVESGGGLVQPGRSLRLSCAASGFTFSNAWMHWVRQAPGKGLEWVAQIKDKGNAYAAYYAPSVKGRFTISRDDSKNSIYLQMNSLKTEDTAVYYCHYVHYASASTVLPAFGVHAWGQGTTVTVSS VL: DIVMTQSPLSLPVTPGEPASISCQASQELVHMNRNTYLHWYQQKPGQAPRLLIYKVSNRFPGVPDRFSGSGSGTDFTLKISRVEAEDVGVYYCAQGTSVPFTFGQGTKLEIK | 0.4 fold
5 | dBBDu183H A102V/dBBDu072L (antibody, name in Kabat numbering, V domains shown) VH: QVQLVESGGGLVQPGRSLRLSCAASGFTFSNAWMHWVRQAPGKGLEWVAQIKDKGNAYAAYYAPSVKGRFTISRDDSKNSIYLQMNSLKTEDTAVYYCHYVHYASASTVLPAFGVDVWGQGTTVTVSS VL: DIVMTQSPLSLPVTPGEPASISCQASQELVHMNRNTYLHWYQQKPGQAPRLLIYKVSNRFPGVPDRFSGSGSGTDFTLKISRVEAEDVGVYYCAQGTSVPFTFGQGTKLEIK | 1 fold
6 | dBBDu183H D101E/dBBDu072L (antibody, name in Kabat numbering, V domains shown) VH: QVQLVESGGGLVQPGRSLRLSCAASGFTFSNAWMHWVRQAPGKGLEWVAQIKDKGNAYAAYYAPSVKGRFTISRDDSKNSIYLQMNSLKTEDTAVYYCHYVHYASASTVLPAFGVEAWGQGTTVTVSS VL: DIVMTQSPLSLPVTPGEPASISCQASQELVHMNRNTYLHWYQQKPGQAPRLLIYKVSNRFPGVPDRFSGSGSGTDFTLKISRVEAEDVGVYYCAQGTSVPFTFGQGTKLEIK | 0 fold
7 | dBBDu183H A102Y/dBBDu072L (antibody, name in Kabat numbering, V domains shown) VH: QVQLVESGGGLVQPGRSLRLSCAASGFTFSNAWMHWVRQAPGKGLEWVAQIKDKGNAYAAYYAPSVKGRFTISRDDSKNSIYLQMNSLKTEDTAVYYCHYVHYASASTVLPAFGVDYWGQGTTVTVSS VL: DIVMTQSPLSLPVTPGEPASISCQASQELVHMNRNTYLHWYQQKPGQAPRLLIYKVSNRFPGVPDRFSGSGSGTDFTLKISRVEAEDVGVYYCAQGTSVPFTFGQGTKLEIK | 2.5 fold
8 | dBBDu183H A102R/dBBDu072L (antibody, name in Kabat numbering, V domains shown) VH: QVQLVESGGGLVQPGRSLRLSCAASGFTFSNAWMHWVRQAPGKGLEWVAQIKDKGNAYAAYYAPSVKGRFTISRDDSKNSIYLQMNSLKTEDTAVYYCHYVHYASASTVLPAFGVDRWGQGTTVTVSS VL: DIVMTQSPLSLPVTPGEPASISCQASQELVHMNRNTYLHWYQQKPGQAPRLLIYKVSNRFPGVPDRFSGSGSGTDFTLKISRVEAEDVGVYYCAQGTSVPFTFGQGTKLEIK | 1 fold
9 | dBBDu183H A102S/dBBDu072L (antibody, name in Kabat numbering, V domains shown) VH: QVQLVESGGGLVQPGRSLRLSCAASGFTFSNAWMHWVRQAPGKGLEWVAQIKDKGNAYAAYYAPSVKGRFTISRDDSKNSIYLQMNSLKTEDTAVYYCHYVHYASASTVLPAFGVDSWGQGTTVTVSS VL: DIVMTQSPLSLPVTPGEPASISCQASQELVHMNRNTYLHWYQQKPGQAPRLLIYKVSNRFPGVPDRFSGSGSGTDFTLKISRVEAEDVGVYYCAQGTSVPFTFGQGTKLEIK | 1.9 fold
10 | dBBDu183H A102Q/dBBDu072L (antibody, name in Kabat numbering, V domains shown) VH: QVQLVESGGGLVQPGRSLRLSCAASGFTFSNAWMHWVRQAPGKGLEWVAQIKDKGNAYAAYYAPSVKGRFTISRDDSKNSIYLQMNSLKTEDTAVYYCHYVHYASASTVLPAFGVDQWGQGTTVTVSS VL: DIVMTQSPLSLPVTPGEPASISCQASQELVHMNRNTYLHWYQQKPGQAPRLLIYKVSNRFPGVPDRFSGSGSGTDFTLKISRVEAEDVGVYYCAQGTSVPFTFGQGTKLEIK | 1.3 fold
11 | dBBDu183H A102W/dBBDu072L (antibody, name in Kabat numbering, V domains shown) VH: QVQLVESGGGLVQPGRSLRLSCAASGFTFSNAWMHWVRQAPGKGLEWVAQIKDKGNAYAAYYAPSVKGRFTISRDDSKNSIYLQMNSLKTEDTAVYYCHYVHYASASTVLPAFGVDWWGQGTTVTVSS VL: DIVMTQSPLSLPVTPGEPASISCQASQELVHMNRNTYLHWYQQKPGQAPRLLIYKVSNRFPGVPDRFSGSGSGTDFTLKISRVEAEDVGVYYCAQGTSVPFTFGQGTKLEIK | 3.3 fold
12 | dBBDu183H A102T/dBBDu072L (antibody, name in Kabat numbering, V domains shown) VH: QVQLVESGGGLVQPGRSLRLSCAASGFTFSNAWMHWVRQAPGKGLEWVAQIKDKGNAYAAYYAPSVKGRFTISRDDSKNSIYLQMNSLKTEDTAVYYCHYVHYASASTVLPAFGVDTWGQGTTVTVSS VL: DIVMTQSPLSLPVTPGEPASISCQASQELVHMNRNTYLHWYQQKPGQAPRLLIYKVSNRFPGVPDRFSGSGSGTDFTLKISRVEAEDVGVYYCAQGTSVPFTFGQGTKLEIK | 0.5 fold

Results, then the binder that gave them:

Row | fold change of affinity | Binder
13 | 0.6 fold | dBBDu183H D101S/dBBDu072L (antibody, name in Kabat numbering, V domains shown) VH: QVQLVESGGGLVQPGRSLRLSCAASGFTFSNAWMHWVRQAPGKGLEWVAQIKDKGNAYAAYYAPSVKGRFTISRDDSKNSIYLQMNSLKTEDTAVYYCHYVHYASASTVLPAFGVSAWGQGTTVTVSS VL: DIVMTQSPLSLPVTPGEPASISCQASQELVHMNRNTYLHWYQQKPGQAPRLLIYKVSNRFPGVPDRFSGSGSGTDFTLKISRVEAEDVGVYYCAQGTSVPFTFGQGTKLEIK
14 | 0 fold | dBBDu183H D101Q/dBBDu072L (antibody, name in Kabat numbering, V domains shown) VH: QVQLVESGGGLVQPGRSLRLSCAASGFTFSNAWMHWVRQAPGKGLEWVAQIKDKGNAYAAYYAPSVKGRFTISRDDSKNSIYLQMNSLKTEDTAVYYCHYVHYASASTVLPAFGVQAWGQGTTVTVSS VL: DIVMTQSPLSLPVTPGEPASISCQASQELVHMNRNTYLHWYQQKPGQAPRLLIYKVSNRFPGVPDRFSGSGSGTDFTLKISRVEAEDVGVYYCAQGTSVPFTFGQGTKLEIK
15 | 0.5 fold | dBBDu183H D101V/dBBDu072L (antibody, name in Kabat numbering, V domains shown) VH: QVQLVESGGGLVQPGRSLRLSCAASGFTFSNAWMHWVRQAPGKGLEWVAQIKDKGNAYAAYYAPSVKGRFTISRDDSKNSIYLQMNSLKTEDTAVYYCHYVHYASASTVLPAFGVVAWGQGTTVTVSS VL: DIVMTQSPLSLPVTPGEPASISCQASQELVHMNRNTYLHWYQQKPGQAPRLLIYKVSNRFPGVPDRFSGSGSGTDFTLKISRVEAEDVGVYYCAQGTSVPFTFGQGTKLEIK
16 | 1.1 fold | dBBDu183H D101N/dBBDu072L (antibody, name in Kabat numbering, V domains shown) VH: QVQLVESGGGLVQPGRSLRLSCAASGFTFSNAWMHWVRQAPGKGLEWVAQIKDKGNAYAAYYAPSVKGRFTISRDDSKNSIYLQMNSLKTEDTAVYYCHYVHYASASTVLPAFGVNAWGQGTTVTVSS VL: DIVMTQSPLSLPVTPGEPASISCQASQELVHMNRNTYLHWYQQKPGQAPRLLIYKVSNRFPGVPDRFSGSGSGTDFTLKISRVEAEDVGVYYCAQGTSVPFTFGQGTKLEIK
17 | 0.2 fold | dBBDu183H D101T/dBBDu072L (antibody, name in Kabat numbering, V domains shown) VH: QVQLVESGGGLVQPGRSLRLSCAASGFTFSNAWMHWVRQAPGKGLEWVAQIKDKGNAYAAYYAPSVKGRFTISRDDSKNSIYLQMNSLKTEDTAVYYCHYVHYASASTVLPAFGVTAWGQGTTVTVSS VL: DIVMTQSPLSLPVTPGEPASISCQASQELVHMNRNTYLHWYQQKPGQAPRLLIYKVSNRFPGVPDRFSGSGSGTDFTLKISRVEAEDVGVYYCAQGTSVPFTFGQGTKLEIK
18 | 0 fold | dBBDu183H D101W/dBBDu072L (antibody, name in Kabat numbering, V domains shown) VH: QVQLVESGGGLVQPGRSLRLSCAASGFTFSNAWMHWVRQAPGKGLEWVAQIKDKGNAYAAYYAPSVKGRFTISRDDSKNSIYLQMNSLKTEDTAVYYCHYVHYASASTVLPAFGVWAWGQGTTVTVSS VL: DIVMTQSPLSLPVTPGEPASISCQASQELVHMNRNTYLHWYQQKPGQAPRLLIYKVSNRFPGVPDRFSGSGSGTDFTLKISRVEAEDVGVYYCAQGTSVPFTFGQGTKLEIK
19 | 0 fold | dBBDu183H D101K/dBBDu072L (antibody, name in Kabat numbering, V domains shown) VH: QVQLVESGGGLVQPGRSLRLSCAASGFTFSNAWMHWVRQAPGKGLEWVAQIKDKGNAYAAYYAPSVKGRFTISRDDSKNSIYLQMNSLKTEDTAVYYCHYVHYASASTVLPAFGVKAWGQGTTVTVSS VL: DIVMTQSPLSLPVTPGEPASISCQASQELVHMNRNTYLHWYQQKPGQAPRLLIYKVSNRFPGVPDRFSGSGSGTDFTLKISRVEAEDVGVYYCAQGTSVPFTFGQGTKLEIK
20 | 0 fold | dBBDu183H D101R/dBBDu072L (antibody, name in Kabat numbering, V domains shown) VH: QVQLVESGGGLVQPGRSLRLSCAASGFTFSNAWMHWVRQAPGKGLEWVAQIKDKGNAYAAYYAPSVKGRFTISRDDSKNSIYLQMNSLKTEDTAVYYCHYVHYASASTVLPAFGVRAWGQGTTVTVSS VL: DIVMTQSPLSLPVTPGEPASISCQASQELVHMNRNTYLHWYQQKPGQAPRLLIYKVSNRFPGVPDRFSGSGSGTDFTLKISRVEAEDVGVYYCAQGTSVPFTFGQGTKLEIK
